Measured values taken from publication PMC3192115, “Analysis of RNA Binding by the Dengue Virus NS5 RNA Capping Enzyme”.
“And” between values parts separate entries of the source, which are not always exact repeats. Identical values can stand only once.

What was measured:
[1] = biological target: T1, NS5 capping enzyme WT (West Nile) (West Nile virus) (UniProt Q9Q6P4); experiment: fluorescence polarization; conditions: 5' diphosphate
T1 sequence: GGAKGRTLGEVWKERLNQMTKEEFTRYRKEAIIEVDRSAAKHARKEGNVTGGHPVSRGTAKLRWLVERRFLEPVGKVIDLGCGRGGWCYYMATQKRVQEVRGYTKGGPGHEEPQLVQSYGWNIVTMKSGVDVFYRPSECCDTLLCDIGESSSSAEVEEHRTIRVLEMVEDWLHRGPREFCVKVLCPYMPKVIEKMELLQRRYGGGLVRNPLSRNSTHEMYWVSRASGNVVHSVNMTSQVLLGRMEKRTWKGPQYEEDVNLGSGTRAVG

[2] = biological target: NS5 capping enzyme WT (yellow fever) (Yellow fever virus, UniProt P03314 2507-2774); experiment: fluorescence polarization; conditions: protein: recombinant; label: 3' FAM
[3] = biological target: T2, NS5 N-terminal capping enzyme WT (dengue 2) (Dengue virus type 2, UniProt P29990 2492-2758); experiment: fluorescence polarization; conditions: protein: recombinant; tags: His; label: 3' FAM
[4] = biological target: T2, NS5 N-terminal capping enzyme WT …; experiment: fluorescence polarization; mock control for GTP experiment; conditions: protein: recombinant; tags: His; label: 3' FAM
[5] = biological target: T2, NS5 N-terminal capping enzyme WT …; experiment: fluorescence polarization; Table 1 gives 3.7 uM, SD 217 nM; conditions: protein: recombinant; tags: His; label: 3' FAM

T2 sequence (P29990 2492-2758): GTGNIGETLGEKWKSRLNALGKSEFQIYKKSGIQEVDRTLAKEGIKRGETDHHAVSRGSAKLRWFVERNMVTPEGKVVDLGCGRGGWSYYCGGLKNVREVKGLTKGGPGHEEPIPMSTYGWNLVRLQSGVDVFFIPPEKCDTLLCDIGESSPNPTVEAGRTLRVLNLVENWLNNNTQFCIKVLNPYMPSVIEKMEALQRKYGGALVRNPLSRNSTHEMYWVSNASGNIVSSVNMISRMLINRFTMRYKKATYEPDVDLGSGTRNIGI
Chain of NS5 capping enzyme WT (yellow fever) (P03314 2507-2774): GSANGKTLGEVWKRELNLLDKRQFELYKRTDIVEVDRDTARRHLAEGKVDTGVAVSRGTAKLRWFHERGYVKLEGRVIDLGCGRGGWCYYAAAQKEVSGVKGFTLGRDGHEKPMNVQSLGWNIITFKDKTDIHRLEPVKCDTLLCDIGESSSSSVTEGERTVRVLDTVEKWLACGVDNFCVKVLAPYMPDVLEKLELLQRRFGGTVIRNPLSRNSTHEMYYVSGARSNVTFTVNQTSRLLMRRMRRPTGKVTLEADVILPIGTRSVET

AGUAA [ppAGUAA-FAM] gave a Kd [1] of 0.136 µM.

AGUAA (ssRNA, 5' diphosphate) [ppAGUAA-FAM] was tested, and the Kd [2] was 0.42 ± 0.02 µM and the Kd [3] was 0.187 µM and ~0.2 µM.

AGUAA (ssRNA, no 5' phosphate) [AGUAA-FAM] was tested, and the Kd [4] was 3.5 µM and the Kd [5] was 3.8 ± 0.2 µM.

For AGUAA (ssRNA, 5' monophosphate) [pAGUAA-FAM], the Kd [3] was 0.967 ± 0.088 µM.
